The values that follow come from US20110251255.

The target of the data set is recombinant cofilin (His-tagged fusion protein of human cofilin), P23528.
Chain of recombinant cofilin (His-tagged fusion protein of human cofilin), P23528 (P23528 whole entry, the tested form may be a part): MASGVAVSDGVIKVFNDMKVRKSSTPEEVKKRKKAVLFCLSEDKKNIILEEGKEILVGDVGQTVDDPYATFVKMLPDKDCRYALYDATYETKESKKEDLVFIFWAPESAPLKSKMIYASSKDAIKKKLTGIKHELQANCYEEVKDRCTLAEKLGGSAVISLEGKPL

B1: LIM kinase 1 (protein)
chain: MRLTLLCCTWREERMGEEGSELPVCASCGQRIYDGQYLQALNADWHADCFRCCDCSASLSHQYYEKDGQLFCKKDYWARYGESCHGCSEQITKGLVMVAGELKYHPECFICLTCGTFIGDGDTYTLVEHSKLYCGHCYYQTVVTPVIEQILPDSPGSHLPHTVTLVSIPASSHGKRGLSVSIDPPHGPPGCGTEHSHTVRVQGVDPGCMSPDVKNSIHVGDRILEINGTPIRNVPLDEIDLLIQETSRLLQLTLEHDPHDTLGHGLGPETSPLSSPAYTPSGEAGSSARQKPVLRSCSIDRSPGAGSLGSPASQRKDLGRSESLRVVCRPHRIFRPSDLIHGEVLGKGCFGQAIKVTHRETGEVMVMKELIRFDEETQRTFLKEVKVMRCLEHPNVLKFIGVLYKDKRLNFITEYIKGGTLRGIIKSMDSQYPWSQRVSFAKDIASGMAYLHSMNIIHRDLNSHNCLVRENKNVVVADFGLARLMVDEKTQPEGLRSLKKPDRKKRYTVVGNPYWMAPEMINGRSYDEKVDVFSFGIVLCEIIGRVNADPDYLPRTMDFGLNVRGFLDRYCPPNCPPSFFPITVRCCDLDPEKRPSFVKLEHWLETLRMHLAGHLPLGPQLEQLDRGFWETYRRGESGLPAHPEVPD
As to B1, the “in vitro phosphorylation of recombinant cofilin (immune complex kinase assay, autoradiography)” value is “immunoprecipitated LIMK1 (FIG. 2, a and b) from PC3 cells was capable of phosphorylating recombinant cofilin (FIG. 2c)”.
